Data published in PMC3257248, “Wnt4 Participates in the Formation of Vertebrate Neuromuscular Junction” (PLoS ONE, 2012).

Molecular target: T1, MuSK (muscle specific kinase), full length (rat, UniProt Q62838 22-868)
T1 sequence (looked up): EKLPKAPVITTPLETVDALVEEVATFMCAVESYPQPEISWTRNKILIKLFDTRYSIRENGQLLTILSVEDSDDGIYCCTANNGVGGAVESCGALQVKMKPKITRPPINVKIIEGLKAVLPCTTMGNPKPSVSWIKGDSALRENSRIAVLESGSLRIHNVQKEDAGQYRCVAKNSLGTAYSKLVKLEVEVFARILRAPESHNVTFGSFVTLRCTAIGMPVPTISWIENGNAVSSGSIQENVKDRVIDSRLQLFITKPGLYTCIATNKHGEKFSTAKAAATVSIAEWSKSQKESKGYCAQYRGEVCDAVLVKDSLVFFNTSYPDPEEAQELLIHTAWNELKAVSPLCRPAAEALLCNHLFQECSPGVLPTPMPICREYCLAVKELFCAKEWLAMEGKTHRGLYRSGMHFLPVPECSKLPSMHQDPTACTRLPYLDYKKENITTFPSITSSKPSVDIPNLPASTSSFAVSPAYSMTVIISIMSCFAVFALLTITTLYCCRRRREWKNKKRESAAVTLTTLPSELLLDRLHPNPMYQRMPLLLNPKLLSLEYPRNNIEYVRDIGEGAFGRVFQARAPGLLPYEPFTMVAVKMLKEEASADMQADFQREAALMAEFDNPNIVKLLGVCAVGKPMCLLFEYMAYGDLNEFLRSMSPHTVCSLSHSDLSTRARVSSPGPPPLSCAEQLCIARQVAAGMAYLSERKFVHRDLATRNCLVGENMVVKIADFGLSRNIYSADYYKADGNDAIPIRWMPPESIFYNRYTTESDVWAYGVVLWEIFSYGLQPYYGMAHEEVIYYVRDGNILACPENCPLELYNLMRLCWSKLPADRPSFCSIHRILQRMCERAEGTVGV
Test: cell-based or functional assay

- MuSK tyrosine phosphorylation (pTyr blot of HA immunoprecipitates, +Wnt4/-Wnt4 ratio) in HEK 293T cells cotransfected with HA-MuSK with or without Wnt4-HA: 2 fold
B1: HA-tagged Wnt4 (ligand, UniProt P22724 23-351, looked up)
chain: SNWLYLAKLSSVGSISEEETCEKLKGLIQRQVQMCKRNLEVMDSVRRGAQLAIEECQYQFRNRRWNCSTLDSLPVFGKVVTQGTREAAFVYAISSAGVAFAVTRACSSGELEKCGCDRTVHGVSPQGFQWSGCSDNIAYGVAFSQSFVDVRERSKGASSSRALMNLHNNEAGRKAILTHMRVECKCHGVSGSCEVKTCWRAVPPFRQVGHALKEKFDGATEVEPRRVGSSRALVPRNAQFKPHTDEDLVYLEPSPDFCEQDIRSGVLGTRGRTCNKTSKAIDGCELLCCGRGFHTAQVELAERCGCRFHWCCFVKCRQCQRLVEMHTCR
